Laboratory results as given in IntAct's records for PubMed 15148308.

B1: Docking protein 1 (Mus musculus), P97465 (parent)
chain: MDGAVMEGPLFLQSQRFGTKRWRKTWAVLYPASPHGVARLEFFDHKGSSSRGGRGGSRRLDCKMIRLAECVSVVPVTVESPPEPGAVAFRLDTAQRSHLLAADAVSSTAWVQTLCRTAFPKGGWALAQTENQPKFSALEMLENSLYSPTWEGSQFWVTSQKTEASERCGLQGSYILRVEAEKLTLLTLGAQSQILEPLLFWPYTLLRRYGRDKVMFSFEAGRRCPSGPGTFTFQTSQGNDIFQAVEAAIQQQKAQGKVGQAQDILRTDSHDGETEGKTVPPPVPQDPLGSPPALYAEPLDSLRIPPGPSQDSVYSDPLGSTPAGAGEGVHSKKPLYWDLYGHVQQQLLKTKLTDSKEDPIYDEPEGLAPAPPRGLYDLPQEPRDAWWCQARLKEEGYELPYNPATDDYAVPPPRSPKPAPAPKPQGLILPESGTTRGSGSKGFSSDTALYSQVQKSGTSGAWDCGLSKVGNDRAGVKSEGST

Variants of: B1
Details: with nck1_mouse Nck1, Q99M51

effect of a mutation on the interaction | Variant
disrupting interaction | Y361F
